Data taken from patent US20230357367A1.
Like-named read-outs stand apart in the source and are kept apart here.

How the values were obtained:
Experiment in all cases: cell-based or functional assay
[1] = target: spike (SARS-CoV-2, B.1.617.2, Delta) (SARS-CoV-2)
[2] = target: spike (SARS-CoV-2, B.1.617.2, Delta) (SARS-CoV-2); remark: listed apart in the source
[3] = target: spike (SARS-CoV-2, B.1.617.2, Delta) (SARS-CoV-2); remark: listed apart in the source
[4] = target: spike (SARS-CoV-2, BQ.1.1) (SARS-CoV-2)
[5] = target: spike (SARS-CoV-2, B.1.617.2, Delta) (SARS-CoV-2); remark: listed apart in the source
[6] = target: spike (SARS-CoV-2, XBB.1.5) (SARS-CoV-2)
[7] = target: spike (SARS-CoV-2, CH.1.1) (SARS-CoV-2)
[8] = target: spike (SARS-CoV-2, BQ.1) (SARS-CoV-2)
[9] = target: spike (SARS-CoV-2, BA.1) (SARS-CoV-2)
[10] = target: spike (SARS-CoV-2, BF.7.14) (SARS-CoV-2)
[11] = target: spike (SARS-CoV-2, BA.2.12.1) (SARS-CoV-2)
[12] = target: spike (SARS-CoV-2, BA.2.75) (SARS-CoV-2)
[13] = target: spike (SARS-CoV-2, BQ.1.1) (SARS-CoV-2); remark: listed apart in the source
[14] = target: spike (SARS-CoV-2, BA.4.6) (SARS-CoV-2)
[15] = target: spike (SARS-CoV-2, B.1.617.2, Delta) (SARS-CoV-2); remark: listed apart in the source
[16] = target: spike (SARS-CoV-2, BA.2.3.20) (SARS-CoV-2)
[17] = target: spike (SARS-CoV-2, XBB.1) (SARS-CoV-2)
[18] = target: spike (SARS-CoV-2, BA.4/5) (SARS-CoV-2)
[19] = target: spike (SARS-CoV-2, BA.1.1) (SARS-CoV-2)
[20] = target: spike (SARS-CoV-2, BA.2.75.2) (SARS-CoV-2)
[21] = target: spike (SARS-CoV-2, BF.7) (SARS-CoV-2)
[22] = target: spike (SARS-CoV-2, BA.2) (SARS-CoV-2)
[23] = target: spike (SARS-CoV-2, XBB.1.5) (SARS-CoV-2); remark: listed apart in the source
[24] = target: spike (SARS-CoV-2, BN.1) (SARS-CoV-2)
[25] = target: spike (SARS-CoV-2, BQ.1.1) (SARS-CoV-2); remark: listed apart in the source
[26] = target: spike (SARS-CoV-2, XBB.1.5) (SARS-CoV-2); remark: listed apart in the source
[27] = target: spike (SARS-CoV-2, BQ.1.1) (SARS-CoV-2); remark: listed apart in the source
[28] = target: spike (SARS-CoV-2, XBB.1.5) (SARS-CoV-2); remark: listed apart in the source
[29] = target: spike (SARS-CoV-2, BQ.1.1) (SARS-CoV-2); remark: listed apart in the source
[30] = target: spike (SARS-CoV-2, XBB.1.5) (SARS-CoV-2); remark: listed apart in the source

bebtelovimab (antibody) gave an EC80, pseudovirus neutralization, Vero E6, with isotype [1] of 3.5 ng/mL, an EC90, pseudovirus neutralization, Vero E6, with isotype [2] of 12 ng/mL and an EC50, pseudovirus neutralization, Vero E6, with isotype [3] of 0.44 ng/mL. The Emax, pseudovirus neutralization, Vero E6, with isotype (% neutralization) [4] was 55.6, the Emax, pseudovirus neutralization, Vero E6, with isotype (% neutralization) [5] was 99.7 and the Emax, pseudovirus neutralization, Vero E6, with isotype (% neutralization) [6] was 0.55. The Emax, pseudovirus neutralization (% neutralization) [7] was 5.32, the Emax, pseudovirus neutralization (% neutralization) [8] was 72.2 and the EC50, pseudovirus neutralization [9] was 0.17 ng/mL. The EC80, pseudovirus neutralization [9] was 1.8 ng/mL, the EC90, pseudovirus neutralization [9] was 7.2 ng/mL and the Emax, pseudovirus neutralization (% neutralization) [9] was 99.8. For the same substance, the EC50, pseudovirus neutralization [10] was 0.22 ng/mL, the EC80, pseudovirus neutralization [10] was 1.4 ng/mL and the EC90, pseudovirus neutralization [10] was 4.1 ng/mL. For the same substance, the Emax, pseudovirus neutralization (% neutralization) [10] was 99.8, the EC50, pseudovirus neutralization [11] was 0.2 ng/mL and the EC80, pseudovirus neutralization [11] was 1.2 ng/mL. It also gave an EC90, pseudovirus neutralization [11] of 3.6 ng/mL, an Emax, pseudovirus neutralization (% neutralization) [11] of 99.9 and an EC50, pseudovirus neutralization [12] of 0.65 ng/mL. The EC80, pseudovirus neutralization [12] was 8.2 ng/mL, the EC90, pseudovirus neutralization [12] was 36 ng/mL and the Emax, pseudovirus neutralization (% neutralization) [12] was 99.5. The Emax, pseudovirus neutralization (% neutralization) [13] was 53, the Emax, pseudovirus neutralization, TMPRSS2-Vero E6, with isotype (% neutralization) [13] was 40.5 and the Emax, pseudovirus neutralization, Vero E6, with isotype (% neutralization) [13] was 59.1. It also gave an EC50, pseudovirus neutralization [14] of 0.2 ng/mL, an EC80, pseudovirus neutralization [14] of 2.5 ng/mL and an EC90, pseudovirus neutralization [14] of 11 ng/mL. For the same substance, the Emax, pseudovirus neutralization (% neutralization) [14] was 99.6, the EC50, live virus neutralization [15] was 4.6 ng/mL and the EC50, pseudovirus neutralization [15] was 3.8 ng/mL. The EC50, pseudovirus neutralization, TMPRSS2-Vero E6, with isotype [15] was 1.6 ng/mL, the EC50, pseudovirus neutralization, Vero E6, with isotype [15] was 0.63 ng/mL and the EC80, pseudovirus neutralization [15] was 23 ng/mL. For the same substance, the EC80, pseudovirus neutralization, TMPRSS2-Vero E6, with isotype [15] was 13 ng/mL, the EC80, pseudovirus neutralization, Vero E6, with isotype [15] was 4.2 ng/mL and the EC90, live virus neutralization [15] was 15.9 ng/mL. The EC90, pseudovirus neutralization [15] was 66 ng/mL, the EC90, pseudovirus neutralization, TMPRSS2-Vero E6, with isotype [15] was 43 ng/mL and the EC90, pseudovirus neutralization, Vero E6, with isotype [15] was 13 ng/mL. The Emax, pseudovirus neutralization (% neutralization) [15] was 99.9, the Emax, pseudovirus neutralization, TMPRSS2-Vero E6, with isotype (% neutralization) [15] was 99.7 and the Emax, pseudovirus neutralization, Vero E6, with isotype (% neutralization) [15] was 99.7. It also gave an EC50, pseudovirus neutralization [16] of 12 ng/mL, an EC80, pseudovirus neutralization [16] of 360 ng/mL and an EC90, pseudovirus neutralization [16] of 2600 ng/mL. The Emax, pseudovirus neutralization (% neutralization) [16] was 97.9, the Emax, pseudovirus neutralization (% neutralization) [17] was 10.8 and the EC50, pseudovirus neutralization [18] was 0.073 ng/mL. It also gave an EC80, pseudovirus neutralization [18] of 1.2 ng/mL, an EC90, pseudovirus neutralization [18] of 6.4 ng/mL and an Emax, pseudovirus neutralization (% neutralization) [18] of 99.8. The EC50, pseudovirus neutralization [19] was 0.12 ng/mL, the EC80, pseudovirus neutralization [19] was 1.3 ng/mL and the EC90, pseudovirus neutralization [19] was 5.6 ng/mL. For the same substance, the Emax, pseudovirus neutralization (% neutralization) [19] was 99.9, the EC50, pseudovirus neutralization [20] was 0.46 ng/mL and the EC80, pseudovirus neutralization [20] was 6.3 ng/mL. It also gave an EC90, pseudovirus neutralization [20] of 29 ng/mL, an Emax, pseudovirus neutralization (% neutralization) [20] of 99.5 and an EC50, pseudovirus neutralization [21] of 0.11 ng/mL. It also gave an EC80, pseudovirus neutralization [21] of 1.7 ng/mL, an EC90, pseudovirus neutralization [21] of 8.5 ng/mL and an Emax, pseudovirus neutralization (% neutralization) [21] of 99.8. The EC50, pseudovirus neutralization [22] was 0.2 ng/mL, the EC80, pseudovirus neutralization [22] was 1.4 ng/mL and the EC90, pseudovirus neutralization [22] was 4.4 ng/mL. For the same substance, the Emax, pseudovirus neutralization (% neutralization) [22] was 99.9, the Emax, pseudovirus neutralization (% neutralization) [23] was 2.01 and the Emax, pseudovirus neutralization, TMPRSS2-Vero E6, with isotype (% neutralization) [23] was 2.93. The Emax, pseudovirus neutralization, Vero E6, with isotype (% neutralization) [23] was 4.21, the EC50, pseudovirus neutralization [24] was 0.467 ng/mL and the EC80, pseudovirus neutralization [24] was 5.3 ng/mL. It also gave an EC90, pseudovirus neutralization [24] of 22 ng/mL and an Emax, pseudovirus neutralization (% neutralization) [24] of 99.4.

In the case of sotrovimab VH/VL-hamIgG2a (antibody), the EC50, pseudovirus neutralization, Vero E6 [22] is reported as 361 ng/mL.

sotrovimab VH/VL-huIgG1 (antibody) gave an EC50, pseudovirus neutralization, Vero E6 [22] of 862 ng/mL.

In the case of sotrovimab VH/VL-huIgG1-LS (antibody), the EC80, pseudovirus neutralization, Vero E6, with isotype [25] is reported as 4400 ng/mL, the EC80, pseudovirus neutralization, Vero E6, with isotype [1] is reported as 42 ng/mL and the EC80, pseudovirus neutralization, Vero E6, with isotype [26] is reported as 680 ng/mL. The EC90, pseudovirus neutralization, Vero E6, with isotype [27] was 9600 ng/mL, the EC90, pseudovirus neutralization, Vero E6, with isotype [2] was 110 ng/mL and the EC90, pseudovirus neutralization, Vero E6, with isotype [28] was 1500 ng/mL. It also gave an EC50, pseudovirus neutralization, Vero E6, with isotype [29] of 1200 ng/mL, an EC50, pseudovirus neutralization, Vero E6, with isotype [3] of 7.9 ng/mL and an EC50, pseudovirus neutralization, Vero E6, with isotype [30] of 170 ng/mL. The Emax, pseudovirus neutralization, Vero E6, with isotype (% neutralization) [4] was 71.9, the Emax, pseudovirus neutralization, Vero E6, with isotype (% neutralization) [5] was 96.9 and the Emax, pseudovirus neutralization, Vero E6, with isotype (% neutralization) [6] was 93.4. For the same substance, the EC50, pseudovirus neutralization, Vero E6 [22] was 851 ng/mL.
